Measured values from publication PMC4937829 (Nature structural & molecular biology, 2016).
Residue numbers refer to the chain shown, from its start. Names may count otherwise.

T1: Spy H96L 29-124 (Escherichia coli, UniProt P77754 52-147, H96L)
T1 sequence: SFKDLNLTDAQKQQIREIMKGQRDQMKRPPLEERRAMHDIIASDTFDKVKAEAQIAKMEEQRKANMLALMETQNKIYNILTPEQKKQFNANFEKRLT

B1: Spy 29-124 (wild type) (domain or fragment, Escherichia coli)
chain: T1 sequence with L69H
B2: bovine alpha casein S1 148-177 peptide (peptide)
peptide: Ac-ELFRQFYQLDAYPSGAWYYVPLGTQYTDAP-NH2
B3: Im7 6-45 peptide (peptide)
peptide: SISDYTEAEFVQLLKEIEKENVAATDDVLDVLLEHFVKIT
B4: Im7 L18A L19A L37A H40W (natural protein, E. coli, UniProt Q03708 1-87, looked up)
chain: MELKNSISDYTEAEFVQAAKEIEKENVAATDDVLDVALEWFVKITEHPDGTDLIYYPSDNRDDSPEGIVKEIKEWRAANGKPGFKQG
B5: wild-type (WT) E. coli Im7 (natural protein, UniProt Q03708 1-87, looked up)
chain: B4 chain with A18L, A19L, A37L, W40H
B6: Im7 L18A L19A L37A (natural protein, E. coli, UniProt Q03708 1-87, looked up)
chain: B4 chain with W40H

Tests used:
[1] = molecular target: the molecule itself; test: crystal structure
[2] = molecular target: B1; test: crystal structure
[3] = molecular target: B1; test: other fluorescence titration
[4] = molecular target: T1, Spy H96L 29-124; test: crystal structure

| binding result [2] | binding result [4] | Binder | other results |
| --- | --- | --- | --- |
| – | – | B1 | binding result [1]: binds |
| binds | – | B2 | – |
| binds | – | B3 | – |
| – | – | B4 | binding result [3]: binds |
| – | binds | B5 | – |
| – | binds | B6 | – |
